No end group written: not given here. *: point of attachment. Biotin = O=C1N[C@H]2[C@H](CS[C@H]2CCCCC(=O)*)N1
Columns and labels:
asyn_113-127 [1] = target: T1, asyn_113-127 (human); test: Ala-scan peptide ELISA, row D, run 1
T1 construct: also called pep1
T1 peptide: Biotin-LEDMPVDPDNEAYEM
Procedure: (§1) 96-well Nunc plates were coated with 50 μL per well of 1 μg/mL streptavidin (from Jackson Immuno Research Laboratory) in PBS at 4° C. overnight. The plates were washed three times with PBST, and blocked with PBS containing 3% BSA at room temperature for 1 hour. The N-terminal biotinylated peptides were dissolved in Milli Q water to a concentration of 2 mg/mL, then further diluted to a concentration of 2 μg/mL with PBS. 50 μl of the diluted peptide was applied to the streptavidin-coated plates and incubated at 4° C. overnight. 2 μg/mL of biotinylated human alpha-synuclein was used as the positive control. The plates were washed three times with PBST before use. Purified antibody was diluted by serial dilution methods, from 20 μg/mL to 1 ng/mL, and 50 μL of the antibody solution was added to the peptide-coated wells. The plates were incubated for 1 hour at room temperature, then washed three times with PBST. Secondary detection antibody (goat anti-rat HRP (obtained from Southern Biotech)) was added with 1:5,000 dilutions and incubated for 1 hour at room temperature, then washed three times with PBST. Plates were developed with 50 μL/well of TMB substrate (Thermo Fisher) and quenched with 50 μL/well of 1 N sulfuric acid. The signal was quantified on a BioTek® plate reader at A450. A parallel repeat was performed for each peptide in a separate plate.

asyn_113-127_113A [2] = target: T2, asyn_113-127_113A (human); test: Ala-scan peptide ELISA, row D, run 1
T2 construct: substitution is already in the entry; also called pep2
T2 peptide: Biotin-AEDMPVDPDNEAYEM
Procedure: as §1

asyn_113-127_114A [3] = target: T3, asyn_113-127_114A (human); test: Ala-scan peptide ELISA, row D, run 1
T3 construct: substitution is already in the entry; also called pep3
T3 peptide: Biotin-LADMPVDPDNEAYEM
Procedure: as §1

asyn_113-127_115A = target: T4, asyn_113-127_115A (human); test: Ala-scan peptide ELISA, row D, run 1
T4 construct: substitution is already in the entry; also called pep4
T4 peptide: Biotin-LEAMPVDPDNEAYEM
Procedure: as §1

asyn_113-127_116A [4] = target: T5, asyn_113-127_116A (human); test: Ala-scan peptide ELISA, row D, run 1
T5 construct: substitution is already in the entry; also called pep5
T5 peptide: Biotin-LEDAPVDPDNEAYEM
Procedure: as §1

asyn_113-127_117A [5] = target: T6, asyn_113-127_117A (human); test: Ala-scan peptide ELISA, row D, run 1
T6 construct: substitution is already in the entry; also called pep6
T6 peptide: Biotin-LEDMAVDPDNEAYEM
Procedure: as §1

asyn_113-127_118A [6] = target: T7, asyn_113-127_118A (human); test: Ala-scan peptide ELISA, row D, run 1
T7 construct: substitution is already in the entry; also called pep7
T7 peptide: Biotin-LEDMPADPDNEAYEM
Procedure: as §1

asyn_113-127_119A [7] = target: T8, asyn_113-127_119A (human); test: Ala-scan peptide ELISA, row D, run 1
T8 construct: substitution is already in the entry; also called pep8
T8 peptide: Biotin-LEDMPVAPDNEAYEM
Procedure: as §1

asyn_113-127_120A [8] = target: T9, asyn_113-127_120A (human); test: Ala-scan peptide ELISA, row D, run 1
T9 construct: substitution is already in the entry; also called pep9
T9 peptide: Biotin-LEDMPVDADNEAYEM
Procedure: as §1

asyn_113-127_121A [9] = target: T10, asyn_113-127_121A (human); test: Ala-scan peptide ELISA, row D, run 1
T10 construct: substitution is already in the entry; also called pep10
T10 peptide: Biotin-LEDMPVDPANEAYEM
Procedure: as §1

asyn_113-127_122A [10] = target: T11, asyn_113-127_122A (human); test: Ala-scan peptide ELISA, row D, run 1
T11 construct: substitution is already in the entry; also called pep11
T11 peptide: Biotin-LEDMPVDPDAEAYEM
Procedure: as §1

asyn_113-127_123A [11] = target: T12, asyn_113-127_123A (human); test: Ala-scan peptide ELISA, row D, run 1
T12 construct: substitution is already in the entry; also called pep12
T12 peptide: Biotin-LEDMPVDPDNAAYEM
Procedure: as §1

asyn_113-127_124G = target: T13, asyn_113-127_124G (human); test: Ala-scan peptide ELISA, row D, run 1
T13 construct: substitution is already in the entry; also called pep13
T13 peptide: Biotin-LEDMPVDPDNEGYEM
Procedure: as §1

asyn_113-127_124P [12] = target: T14, asyn_113-127_124P (human); test: Ala-scan peptide ELISA, row D, run 1
T14 construct: substitution is already in the entry; also called pep14
T14 peptide: Biotin-LEDMPVDPDNEPYEM
Procedure: as §1

asyn_113-127_125A = target: T15, asyn_113-127_125A (human); test: Ala-scan peptide ELISA, row D, run 1
T15 construct: substitution is already in the entry; also called pep15
T15 peptide: Biotin-LEDMPVDPDNEAAEM
Procedure: as §1

asyn_113-127_126A = target: T16, asyn_113-127_126A (human); test: Ala-scan peptide ELISA, row D, run 1
T16 construct: substitution is already in the entry; also called pep16
T16 peptide: Biotin-LEDMPVDPDNEAYAM
Procedure: as §1

asyn_113-127_127A [13] = target: T17, asyn_113-127_127A (human); test: Ala-scan peptide ELISA, row D, run 1
T17 construct: substitution is already in the entry; also called pep17
T17 peptide: Biotin-LEDMPVDPDNEAYEA
Procedure: as §1

[14] = target: biotinylated human alpha-synuclein (human, UniProt P37840 1-140); test: Ala-scan peptide ELISA, row D, run 1
Procedure: as §1

asyn_113-127 [15] = target: T1, asyn_113-127; test: Ala-scan peptide ELISA, row D, run 2
Procedure: as §1

asyn_113-127_113A [16] = target: T2, asyn_113-127_113A; test: Ala-scan peptide ELISA, row D, run 2
Procedure: as §1

asyn_113-127_114A [17] = target: T3, asyn_113-127_114A; test: Ala-scan peptide ELISA, row D, run 2
Procedure: as §1

asyn_113-127_116A [18] = target: T5, asyn_113-127_116A; test: Ala-scan peptide ELISA, row D, run 2
Procedure: as §1

asyn_113-127_117A [19] = target: T6, asyn_113-127_117A; test: Ala-scan peptide ELISA, row D, run 2
Procedure: as §1

asyn_113-127_118A [20] = target: T7, asyn_113-127_118A; test: Ala-scan peptide ELISA, row D, run 2
Procedure: as §1

asyn_113-127_119A [21] = target: T8, asyn_113-127_119A; test: Ala-scan peptide ELISA, row D, run 2
Procedure: as §1

asyn_113-127_121A [22] = target: T10, asyn_113-127_121A; test: Ala-scan peptide ELISA, row D, run 2
Procedure: as §1

asyn_113-127_122A [23] = target: T11, asyn_113-127_122A; test: Ala-scan peptide ELISA, row D, run 2
Procedure: as §1

asyn_113-127_123A [24] = target: T12, asyn_113-127_123A; test: Ala-scan peptide ELISA, row D, run 2
Procedure: as §1

asyn_113-127_124P [25] = target: T14, asyn_113-127_124P; test: Ala-scan peptide ELISA, row D, run 2
Procedure: as §1

asyn_113-127_127A [26] = target: T17, asyn_113-127_127A; test: Ala-scan peptide ELISA, row D, run 2
Procedure: as §1

asyn_113-127 [27] = target: T1, asyn_113-127; test: Ala-scan peptide ELISA, row H, run 1
Procedure: as §1

asyn_113-127_120A [28] = target: T9, asyn_113-127_120A; test: Ala-scan peptide ELISA, row H, run 1
Procedure: as §1

asyn_113-127_127A [29] = target: T17, asyn_113-127_127A; test: Ala-scan peptide ELISA, row H, run 1
Procedure: as §1

[30] = target: human alpha-synuclein pre-formed fibrils (human, UniProt P37840 1-140); test: competition ELISA: fibrils titrated in solution against 0.6 nM antibody, free antibody read on aSyn-coated plate
Procedure: Purified antibody was probed with different concentrations of alpha-synuclein fibrils in solution, and the levels of unbound antibody were measured by ELISA analysis. In this experiment, 0.6 nM (0.1 μg/mL) of purified antibody was dissolved in phosphate-buffered saline (PBS) solution. […] The mixtures were gently shaken at room temperature for 1 hour to reach equilibrium. After that, these samples were transferred to an alpha-synuclein protein-coated ELISA plate and incubated for 5 minutes. During this short incubation, antibody that was not associated to antigen in the previous solution could instead bind onto the plate, and thus be quantified using a standard ELISA technique. By this means, it was possible to determine the amount of free antibody in the initial mixture with alpha-synuclein fibrils at indicated concentrations.

[31] = target: human alpha-synuclein monomer (human, UniProt P37840 1-140); test: direct ELISA, plate coated with 1 µg/mL recombinant human alpha-synuclein, antibody titrated, anti-rat HRP, A450
Procedure: 96-well Nunc plates were coated with 50 μL of recombinant human, mouse, or rat alpha-synuclein at a concentration of 1 μg/mL in PBS at 4° C. overnight. The plates were then washed three times with PBST and blocked with PBS containing 3% BSA at room temperature for 1 hour. Purified antibody was diluted by serial dilution methods, from 10 μg/mL to 0.6 ng/mL, and 50 μL of the antibody solution was added to the alpha-synuclein-coated wells. The plates were incubated for 1 hour at room temperature, then washed three times with PBST. Secondary detection antibody (goat anti-rat HRP (obtained from Southern Biotech)) was added 50 μL/well, 1:5,000 diluted in BSA-PBS solution. Plates were incubated for 1 hour at room temperature, then washed three times with PBST. Plates were subsequently developed with 50 μL/well of TMB substrate (Thermo Fisher) and quenched with 50 μL/well of 1 N sulfuric acid. The signal was quantified on a BioTek® plate reader at A450.

B1: 20H4 (antibody, rat IgG2b, V domains shown)
VH: AVQLVESGGGLVQPKESLKISCAASGFTFSNAAMYWVRQAPGKGLELLARIRTKPNNYATYHADSVKGRFTISRDDSQSMVYLHMGNLKTEDTAMYYCTADMATGDYWGPGVMVTVSS
VL: DIQMTQSPPVLSVSVGDRVTLSCKASQNINKNLDWYQQKHGEAPKPLIYSTNNLQTGVPSRFSGSGSGTDYTLTISSLQPEDVATYYCYQYKSAWTFGGGTKLELR
notes: also called clone 20H4; rat 20H4
- A450 (asyn_113-127 [1]): 0.421 OD
- A450 (asyn_113-127_113A [2]): 0.422 OD
- A450 (asyn_113-127_114A [3]): 0.387 OD
- A450 (asyn_113-127_115A): 0.332 OD
- A450 (asyn_113-127_116A [4]): 0.414 OD
- A450 (asyn_113-127_117A [5]): 0.431 OD
- A450 (asyn_113-127_118A [6]): 0.415 OD
- A450 (asyn_113-127_119A [7]): 0.051 OD
- A450 (asyn_113-127_120A [8]): 0.277 OD
- A450 (asyn_113-127_121A [9]): 0.358 OD
- A450 (asyn_113-127_122A [10]): 0.051 OD
- A450 (asyn_113-127_123A [11]): 0.43 OD
- A450 (asyn_113-127_124G): 0.336 OD
- A450 (asyn_113-127_124P [12]): 0.044 OD
- A450 (asyn_113-127_125A): 0.047 OD
- A450 (asyn_113-127_126A): 0.375 OD
- A450 (asyn_113-127_127A [13]): 0.357 OD
- A450 [14]: 0.491 OD
- A450 (asyn_113-127 [15]): 0.331 OD
- A450 (asyn_113-127_113A [16]): 0.339 OD
- A450 (asyn_113-127_114A [17]): 0.348 OD
- A450 (asyn_113-127_116A [18]): 0.366 OD
- A450 (asyn_113-127_117A [19]): 0.405 OD
- A450 (asyn_113-127_118A [20]): 0.357 OD
- A450 (asyn_113-127_119A [21]): 0.046 OD
- A450 (asyn_113-127_121A [22]): 0.335 OD
- A450 (asyn_113-127_122A [23]): 0.051 OD
- A450 (asyn_113-127_123A [24]): 0.321 OD
- A450 (asyn_113-127_124P [25]): 0.05 OD
- A450 (asyn_113-127_127A [26]): 0.414 OD
- A450 (asyn_113-127 [27]): 0.063 OD
- A450 (asyn_113-127_120A [28]): 0.063 OD
- A450 (asyn_113-127_127A [29]): 0.066 OD
- IC50 [30]: 1.73 nM
- EC50 (read off the curve) [31]: ~0.2 µg/mL
